This passage reports Affinity increase and Kd results from patent US20240279318A1 (NANJING LEGEND BIOTECH, published 2024).

Changes are numbered by the printed parent chain.

B1: AS170036 VL1VH1 HG108Y (scFv)
scFv: QSALTQPRSVSGSPGQSVTISCAGTSSDVGSENYVSWYQQHPGKAPKLMIYQVNKRASGVPDRFSGSKSGNTASLTISGLQAEDEADYYCASYRSSDHNIVFGGGTKLTVLGGGGSGGGGSGGGGSEVQLVESGGGLVQPGGSLRLSCAASGFTFSSYAMSWVRQAPGKGLEWVSTINSGTGSPYYADSVKGRFTISRDNSKNTLYLQMNSLRAEDTAVYYCAKNFFDGSWFLYPPAMDYWGQGTLVTVSSHHHHHH
B2: AS170036 VL1VH1 HS57D (scFv)
scFv: B1 scFv with S183D, Y234G
B3: AS170036 VL1VH1 HP58K (scFv)
scFv: B1 scFv with P184K, Y234G
B4: AS170036 VL1VH1 HS53A (scFv)
scFv: B1 scFv with S179A, Y234G
B5: AS170036 VL1VH1 HP58Y (scFv)
scFv: B1 scFv with P184Y, Y234G
B6: AS170036 VL1VH1 HL107A (scFv)
scFv: B1 scFv with L233A, Y234G
B7: AS170036 VL1VH1 HP58D (scFv)
scFv: B1 scFv with P184D, Y234G
B8: AS170036 VL1VH1 HP58S (scFv)
scFv: B1 scFv with P184S, Y234G
B9: AS170036 VL1VH1 HP58T (scFv)
scFv: B1 scFv with P184T, Y234G
B10: AS170036 VL1VH1 HP109N (scFv)
scFv: B1 scFv with Y234G, P235N
B11: AS170036 VL1VH1 HP58G (scFv)
scFv: B1 scFv with P184G, Y234G
B12: AS170036 VL1VH1 HS53T (scFv)
scFv: B1 scFv with S179T, Y234G
B13: AS170036 VL1VH1 HP110A (scFv)
scFv: B1 scFv with Y234G, P236A
B14: AS170036 VL1VH1 HP109A (scFv)
scFv: B1 scFv with Y234G, P235A
B15: AS170036 VL1VH1 HS57A (scFv)
scFv: B1 scFv with S183A, Y234G
B16: AS170036 VL1VH1 HP110Q (scFv)
scFv: B1 scFv with Y234G, P236Q
B17: AS170036 VL1VH1 HP58V (scFv)
scFv: B1 scFv with P184V, Y234G
B18: AS170036 VL1VH1 HP110L (scFv)
scFv: B1 scFv with Y234G, P236L
B19: AS170036 VL1VH1 HL107I (scFv)
scFv: B1 scFv with L233I, Y234G
B20: AS170036 VL1VH1 HP58F (scFv)
scFv: B1 scFv with P184F, Y234G
B21: AS170036 VL1VH1 HP58E (scFv)
scFv: B1 scFv with P184E, Y234G
B22: AS170036 VL1VH1 HP110N (scFv)
scFv: B1 scFv with Y234G, P236N
B23: AS170036 VL1VH1 HP58H (scFv)
scFv: B1 scFv with P184H, Y234G
B24: AS170036 VL1VH1 HP58Q (scFv)
scFv: B1 scFv with P184Q, Y234G
B25: AS170036 VL1VH1 HL107Q (scFv)
scFv: B1 scFv with L233Q, Y234G
B26: AS170036 VL1VH1 HP110I (scFv)
scFv: B1 scFv with Y234G, P236I
B27: AS170036 VL1VH1 HP110S (scFv)
scFv: B1 scFv with Y234G, P236S
B28: AS170036 VL1VH1 HP58N (scFv)
scFv: B1 scFv with P184N, Y234G
B29: AS170036 VL1VH1 HP109T (scFv)
scFv: B1 scFv with Y234G, P235T
B30: AS170036 VL1VH1 HP110T (scFv)
scFv: B1 scFv with Y234G, P236T
B31: AS170036 VL1VH1 HP58A (scFv)
scFv: B1 scFv with P184A, Y234G
B32: AS170036 VL1VH1 HL107V (scFv)
scFv: B1 scFv with L233V, Y234G
B33: AS170036 VL1VH1 HP110D (scFv)
scFv: B1 scFv with Y234G, P236D
B34: AS170036 VL1VH1 HP58W (scFv)
scFv: B1 scFv with P184W, Y234G
B35: AS170036 VL1VH1 HL107M (scFv)
scFv: B1 scFv with L233M, Y234G
B36: AS170036 VL1VH1 HP110V (scFv)
scFv: B1 scFv with Y234G, P236V
B37: AS170036 VL1VH1 HL107S (scFv)
scFv: B1 scFv with L233S, Y234G
B38: AS170036 VL1VH1 HL107T (scFv)
scFv: B1 scFv with L233T, Y234G
B39: AS170036 VL1VH1 HL107N (scFv)
scFv: B1 scFv with L233N, Y234G
B40: AS170036 VL1VH1 HL107G (scFv)
scFv: B1 scFv with L233G, Y234G
B41: AS170036 VL1VH1 HP110G (scFv)
scFv: B1 scFv with Y234G, P236G
B42: AS170036 VL1VH1 HS57F (scFv)
scFv: B1 scFv with S183F, Y234G
B43: AS170036 VL1VH1 HP110E (scFv)
scFv: B1 scFv with Y234G, P236E
B44: AS170036 VL1VH1 HP58M (scFv)
scFv: B1 scFv with P184M, Y234G
B45: AS170036 VL1VH1 HP58R (scFv)
scFv: B1 scFv with P184R, Y234G

One assay addresses T1, AFP158/HLA-A*02:01 complex (human).
T1 construct: biotinylated on the BSP by BirA for ELISA and panning; also called biotinylated AFP158/HLA-A*02:01 complex; Bio-AFP158
The assay is described as follows: SPR; vs AS170036 VL1VH1.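 Also: crude scFv captured on sensor chip, peptide–HLA complex flowed over at several concentrations, KD estimated from association and dissociation kinetic rates.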
As for B1, the Affinity increase was 0.2 fold.
On the same count and under the same terms, under B2 stands 1.2 fold; under B3, 0.3 fold.
Still for that read-out and setting: for B4 the value was 0.2 fold; for B5, 0.1 fold; for B6, 0.1 fold.
Still for that read-out and setting: for B7 the value was 0.4 fold.
In turn, B8 came in with an Affinity increase of 0.3 fold.
On the same count and under the same terms, under B9 stands 0.4 fold; under B10, 0.1 fold; under B11, 0.9 fold.
The molecule B12 gave an Affinity increase of 0.4 fold.
On the same count and under the same terms, under B13 stands 1.3 fold.
B14: the Affinity increase is 0.1 fold.
The molecule B15 came in with an Affinity increase of 1.2 fold.
B16 came in with an Affinity increase of 0.9 fold.
Still for that read-out and setting: under B17 stands 0.2 fold; under B18, 0.2 fold.
The same measure, in the same setting: for B19 the value was 1.1 fold; for B20, 0.2 fold; for B21, 0.5 fold.
On the same count and under the same terms, for B22 the value was 0.2 fold.
On to B23, for which the Affinity increase turned out to be 0.3 fold.
Same read-out and setting: for B24 the value was 0.5 fold.
On the same count and under the same terms, under B25 stands 0.2 fold; under B26, 0.2 fold; under B27, 0.8 fold.
The same measure, in the same setting: for B28 the value was 0.2 fold.
Molecule B29 had an Affinity increase of 0.1 fold.
Same read-out and setting: for B30 the value was 1.3 fold; for B31, 0.7 fold.
The same measure, in the same setting: under B32 stands 0.1 fold; under B33, 0.5 fold; under B34, 0.1 fold.
The same measure, in the same setting: under B35 stands 0.7 fold; under B36, 0.6 fold.
B37 gave an Affinity increase of 0.1 fold.
Still for that read-out and setting: under B38 stands 0.1 fold.
On the same count and under the same terms, for B39 the value was 0.5 fold; for B40, 0.1 fold; for B41, 1 fold.
The same measure, in the same setting: for B42 the value was 1.4 fold; for B43, 1.8 fold.
The molecule B44 yielded an Affinity increase of 0.2 fold.
B45: the Affinity increase was 0.2 fold.

The next assay deals with T1, AFP158/HLA-A*02:01 complex. The experiment in a line: SPR, crude scFv captured.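 Also: Peptide–MHC complex flowed at several concentrations over sensorchip-captured scFv, Kd derived from on- and off-rates obtained from the association and dissociation curves.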 Background: SPR reads the build-up and loss of mass on a sensor chip optically.
Protocol: The experiment was carried out as follows. The crude scFv protein were captured onto the sensorchip. Different concentrations (320, 160, 40 nM) of AFP158/HLA-A*02:01 complex flowed over the sensorchip surface, and were allowed to bind the antibody fragment for 100 s followed by injection of the running buffer to allow dissociation of the complex. On-rate (kd) and off-rate (kd) were calculated based on association and dissociation curve, and were used to estimate the equilibrium dissociation constant (KD).
Broadly, the Kd is the concentration at which binding is half-saturated. The molecule B1 showed a Kd of 1100 nM.
For B2, binding was put at a Kd of 200 nM.
Still for that read-out and setting: under B3 stands 860 nM; under B4, 1200 nM; under B5, 3500 nM.
Same read-out and setting: under B6 stands 3300 nM.
On the same count and under the same terms, for B7 the value was 660 nM.
Molecule B8 displayed a Kd of 780 nM.
On to B9, for which the Kd is 750 nM.
Still for that read-out and setting: for B10 the value was 4500 nM.
Same read-out and setting: under B11 stands 320 nM.
On the same count and under the same terms, under B12 stands 650 nM.
Molecule B13 registered a Kd of 210 nM.
Still for that read-out and setting: under B14 stands 2700 nM; under B15, 210 nM.
Regarding B16, binding was put at a Kd of 300 nM.
On the same count and under the same terms, for B17 the value was 1200 nM.
Still for that read-out and setting: for B18 the value was 1500 nM; for B19, 240 nM; for B20, 1700 nM.
Same read-out and setting: under B21 stands 600 nM.
As to B22, the affinity, expressed as Kd, was 1200 nM.
The molecule B23 returned a Kd of 1000 nM.
Same read-out and setting: for B24 the value was 500 nM; for B25, 1600 nM.
On the same count and under the same terms, for B26 the value was 1500 nM; for B27, 300 nM; for B28, 1500 nM.
The same measure, in the same setting: under B29 stands 5400 nM; under B30, 180 nM; under B31, 380 nM.
Molecule B32 registered a dissociation constant Kd of 2500 nM.
Take B33: the affinity, expressed as Kd, was 540 nM.
Still for that read-out and setting: under B34 stands 2700 nM; under B35, 370 nM; under B36, 400 nM.
On the same count and under the same terms, under B37 stands 4100 nM; under B38, 2800 nM.
B39 came in with a Kd of 530 nM.
The same measure, in the same setting: for B40 the value was 4400 nM; for B41, 260 nM; for B42, 180 nM.
Still for that read-out and setting: for B43 the value was 150 nM.
Same read-out and setting: under B44 stands 1500 nM; under B45, 1200 nM.
